Experimental data from the supplement of paper PMC7877785.
± gives the uncertainty stated by the source.

Test: self-splicing fitness, log relative to wild type (ln ratio); higher = more splicing; Tetrahymena group I intron in knt gene, E. coli kanamycin selection, DiMSum; sequences stand for … in CUCUCU…GGAGGGAAAAGUUAUCAGGCAUGCACCUGGUAGCUAGUCUUUAAACCAAUAGAUUGCAUCGGUUUAAAAGGCAAGACCGUCAAAUUGCGGGAAAGGGGUCAACAGCCGUUCAGUACCAAGUCUCAGGGGAAACUUUGAGAUGGCCUUGCAAAGGGUAUGGUAAUAAGCUGACGGACAUGGUCCUAACCACGCAGCCAAGUCCUAAGUCAACAGAUCUUCUGUUGAUAUGGAUGCAGUUCACAGACUAAAUGUCGGUCGGGGAAGAUGUAUUCUUCUCAUAAGAUAUAGUCGGACCUCUCCUUAAUGGGAGCUAGCGGAUGAAGUGAUGCAACACUGGAGCCGCUGGGAACUAAUUUGUAUGCGAAAGUAUAUUGAUUAGUUUUGGAGUACUCGUGGUCG
How it was run: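 Library with all eight P1ex-region intron nucleotides randomised, intron inside the knt kanamycin-resistance gene on pET-22b(+), in E. coli BL21(DE3). Cells grew overnight at 37°C or 30°C on LB agar with or without 25 μg/mL kanamycin (plus 100 μg/mL carbenicillin, 50 μM IPTG, 0.2% rhamnose), in six replicate transformations. Pooled colonies were amplicon-sequenced on Illumina HiSeq 2500. DiMSum fitness is the error-weighted combination of wild-type-normalised replicate fold changes, kanamycin versus none.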

Row | Sequence | self-splicing fitness (ln) (30 °C) | self-splicing fitness (ln) (37 °C)
1 | GAAUAGCAAUAUUACGACAG | -3.2 ± 0.28 | -2.62 ± 0.35
2 | AGGAAGCAAUAUUACGGCGA | -0.209 ± 0.097 | -0.301 ± 0.13
3 | GGUCAGCAAUAUUACGUUCG | -0.853 ± 0.093 | 0.373 ± 0.13
4 | AAGUAGCAAUAUUACGCCUA | -0.227 ± 0.11 | -0.477 ± 0.12
5 | GAAUAGCAAUAUUACGAGAA | -2.39 ± 0.46 | -1.6 ± 0.38
6 | GUUGAGCAAUAUUACGGUAG | -4.24 ± 0.46 | -1.94 ± 0.41
7 | UAAGAGCAAUAUUACGUGCG | -3.85 ± 0.42 | -0.711 ± 0.27
8 | AACGAGCAAUAUUACGCAUC | -3.65 ± 0.3 | -0.331 ± 0.18
9 | CGCGAGCAAUAUUACGGAGG | -3.29 ± 0.22 | -1.41 ± 0.19
10 | AGCAAGCAAUAUUACGCCGU | -1.05 ± 0.11 | -0.892 ± 0.11
11 | GCGCAGCAAUAUUACGCUAC | -1.82 ± 0.17 | -1.71 ± 0.3
12 | AACAAGCAAUAUUACGCGCC | -0.296 ± 0.15 | -0.317 ± 0.18
13 | ACAAAGCAAUAUUACGAGCG | -0.894 ± 0.084 | 0.57 ± 0.096
14 | ACUAAGCAAUAUUACGGGGG | -3.59 ± 0.29 | -1.26 ± 0.17
15 | GAGUAGCAAUAUUACGUGUU | -3.05 ± 0.12 | -1.12 ± 0.1
16 | UUAGAGCAAUAUUACGACAA | 0.166 ± 0.062 | 0.493 ± 0.09
17 | GCGAAGCAAUAUUACGCUGA | -0.605 ± 0.24 | -1.5 ± 0.34
18 | UUAGAGCAAUAUUACGGGUU | -4.25 ± 0.42 | -3.21 ± 0.35
19 | CAACAGCAAUAUUACGGCAA | -1.45 ± 0.13 | -1.28 ± 0.12
20 | UUGAAGCAAUAUUACGCUAU | -2.7 ± 0.25 | -1.45 ± 0.26
21 | UGAUAGCAAUAUUACGAUCC | -0.554 ± 0.12 | 0.433 ± 0.15
22 | GGAGAGCAAUAUUACGUCUA | -1.23 ± 0.13 | -1.4 ± 0.1
23 | UCAGAGCAAUAUUACGGCAA | -2.43 ± 0.33 | –
24 | CAAUAGCAAUAUUACGAGUU | -3.64 ± 0.2 | -2.19 ± 0.2
25 | UAGGAGCAAUAUUACGGCUG | -0.891 ± 0.16 | 0.65 ± 0.2

Row | Sequence | self-splicing fitness (ln) (30 °C) | self-splicing fitness (ln) (37 °C)
26 | UAGAAGCAAUAUUACGCCAA | -1.44 ± 0.29 | -1.39 ± 0.28
27 | CAGUAGCAAUAUUACGAUAA | -3.55 ± 0.47 | –
28 | AGAGAGCAAUAUUACGGAUA | -2.48 ± 0.21 | -1.24 ± 0.21
29 | AUGCAGCAAUAUUACGCAGU | -3.23 ± 0.16 | -1.69 ± 0.12
30 | CACCAGCAAUAUUACGGGUC | -2.54 ± 0.07 | -2.17 ± 0.092
31 | UAACAGCAAUAUUACGGACG | -0.143 ± 0.055 | 0.21 ± 0.079
32 | GGCAAGCAAUAUUACGAGAA | -1.8 ± 0.29 | -1.74 ± 0.26
33 | CUAUAGCAAUAUUACGACCU | -2.85 ± 0.42 | –
34 | ACUAAGCAAUAUUACGUUCC | -2.41 ± 0.23 | -1.2 ± 0.29
35 | UCAAAGCAAUAUUACGAGCU | -2.83 ± 0.23 | -1.38 ± 0.22
36 | UCUAAGCAAUAUUACGGUUU | -3.21 ± 0.43 | -2.56 ± 0.31
37 | CUAAAGCAAUAUUACGGUCA | -2.46 ± 0.18 | -1.22 ± 0.2
38 | GAAGAGCAAUAUUACGACCG | -2.29 ± 0.36 | –
39 | UGGGAGCAAUAUUACGUUAA | -2.76 ± 0.33 | –
40 | GACCAGCAAUAUUACGGUAA | 0.0402 ± 0.06 | -0.0565 ± 0.071
41 | CCCUAGCAAUAUUACGUAGG | -2.61 ± 0.15 | -2.15 ± 0.29
42 | ACGCAGCAAUAUUACGAUCC | -2.24 ± 0.15 | -1.09 ± 0.17
43 | CAAUAGCAAUAUUACGUCGU | -3.95 ± 0.23 | -2.49 ± 0.19
44 | CGGAAGCAAUAUUACGCCAA | -2.25 ± 0.39 | -2.08 ± 0.4
45 | GUGAAGCAAUAUUACGUAGG | -2.29 ± 0.14 | -0.218 ± 0.15
46 | GGAGAGCAAUAUUACGGCAA | -2.75 ± 0.47 | -1.59 ± 0.43
47 | CAGUAGCAAUAUUACGGGCG | -0.256 ± 0.089 | 0.0762 ± 0.098
48 | GCGCAGCAAUAUUACGAGUC | -1.6 ± 0.13 | -1.36 ± 0.24
49 | UGCAAGCAAUAUUACGCUCU | -0.965 ± 0.12 | -0.235 ± 0.13
50 | UGGGAGCAAUAUUACGGGAA | -2.98 ± 0.3 | -1.87 ± 0.24

Row | Sequence | self-splicing fitness (ln) (30 °C) | self-splicing fitness (ln) (37 °C)
51 | GGGUAGCAAUAUUACGGAUU | -0.431 ± 0.19 | -0.333 ± 0.23
52 | AACAAGCAAUAUUACGUGGC | -3.61 ± 0.18 | -2.52 ± 0.14
53 | UGGAAGCAAUAUUACGCGGA | -1.17 ± 0.2 | -1.88 ± 0.23
54 | UGUAAGCAAUAUUACGAGAG | -3.81 ± 0.23 | -1.87 ± 0.25
55 | AGCUAGCAAUAUUACGAUGU | -1.79 ± 0.096 | -0.235 ± 0.13
56 | AGCUAGCAAUAUUACGCCGA | -1.4 ± 0.4 | –
57 | UAGAAGCAAUAUUACGACGG | -0.626 ± 0.095 | 0.0889 ± 0.14
58 | GUGGAGCAAUAUUACGUUUG | -3.31 ± 0.26 | -2.79 ± 0.3
59 | AUGUAGCAAUAUUACGGGGU | -2.77 ± 0.23 | -3.12 ± 0.3
60 | GAGCAGCAAUAUUACGACGU | -0.383 ± 0.072 | -0.812 ± 0.079
61 | UCGCAGCAAUAUUACGAUCC | – | -1.68 ± 0.36
62 | CCGGAGCAAUAUUACGCGGU | -3.21 ± 0.16 | -2.96 ± 0.23
63 | UGCCAGCAAUAUUACGUCGC | -3.68 ± 0.44 | -2.95 ± 0.35
64 | GGGUAGCAAUAUUACGUAGC | -0.707 ± 0.15 | -0.648 ± 0.16
65 | UGAGAGCAAUAUUACGAAUA | -2.76 ± 0.49 | –
66 | UCAGAGCAAUAUUACGGUGG | -3.06 ± 0.089 | -1.32 ± 0.084
67 | CAUAAGCAAUAUUACGACCG | 0.135 ± 0.085 | 0.553 ± 0.14
68 | AAUAAGCAAUAUUACGAUUA | -0.789 ± 0.12 | 0.438 ± 0.14
69 | UACCAGCAAUAUUACGCAAG | -2.3 ± 0.13 | -0.829 ± 0.13
70 | CCGAAGCAAUAUUACGAGCA | -2.35 ± 0.22 | -2.9 ± 0.36
71 | AUCGAGCAAUAUUACGGGGA | -2.83 ± 0.22 | -1.18 ± 0.15
72 | UGGCAGCAAUAUUACGACCC | 0.0617 ± 0.19 | -0.655 ± 0.18
73 | AUCGAGCAAUAUUACGUUAU | -3.5 ± 0.26 | -2.59 ± 0.28
74 | AUUAAGCAAUAUUACGCCGA | -1.23 ± 0.26 | 0.0906 ± 0.26
75 | CCCGAGCAAUAUUACGCGAC | -1.96 ± 0.29 | -1.68 ± 0.29

Row | Sequence | self-splicing fitness (ln) (30 °C) | self-splicing fitness (ln) (37 °C)
76 | GUACAGCAAUAUUACGGUCU | -0.535 ± 0.084 | -0.00413 ± 0.11
77 | ACGGAGCAAUAUUACGUGAU | -3.47 ± 0.19 | -1.32 ± 0.2
78 | CUUUAGCAAUAUUACGCGCC | -3.07 ± 0.37 | -2.39 ± 0.45
79 | AGAUAGCAAUAUUACGCAGU | -2.55 ± 0.17 | -1.49 ± 0.17
80 | CCAGAGCAAUAUUACGCGUG | -0.704 ± 0.069 | -0.93 ± 0.095
81 | UAUGAGCAAUAUUACGCCGG | -1.7 ± 0.11 | -0.905 ± 0.19
82 | GGGUAGCAAUAUUACGAUGC | -0.816 ± 0.14 | -0.295 ± 0.19
83 | GCACAGCAAUAUUACGAGGA | -2.11 ± 0.096 | -1.23 ± 0.099
84 | ACGAAGCAAUAUUACGCUUG | -1.4 ± 0.086 | -0.259 ± 0.098
85 | GGCCAGCAAUAUUACGAGAU | -2.68 ± 0.18 | -2.82 ± 0.24
86 | AGCGAGCAAUAUUACGCCCU | -1.34 ± 0.35 | -0.0906 ± 0.22
87 | GAAUAGCAAUAUUACGGGUC | -1.89 ± 0.21 | -2.68 ± 0.33
88 | CGAAAGCAAUAUUACGUAUG | -1.15 ± 0.057 | -0.533 ± 0.083
89 | CAAAAGCAAUAUUACGCCUC | -3.57 ± 0.29 | -1.76 ± 0.25
90 | GUGAAGCAAUAUUACGAAUC | -0.696 ± 0.14 | -0.964 ± 0.22
91 | AUAUAGCAAUAUUACGGCAA | -0.751 ± 0.18 | -0.989 ± 0.19
92 | GGAGAGCAAUAUUACGUGGC | – | -1.63 ± 0.25
93 | GGAAAGCAAUAUUACGUGUC | -3.94 ± 0.31 | -1.91 ± 0.19
94 | CCCAAGCAAUAUUACGCUGA | -3.51 ± 0.25 | -3.69 ± 0.34
95 | CGUAAGCAAUAUUACGACUU | -3.09 ± 0.23 | -1.35 ± 0.22
96 | UCGCAGCAAUAUUACGUCCC | -4.28 ± 0.32 | -2.97 ± 0.3
97 | CGCAAGCAAUAUUACGAUUA | -2.6 ± 0.17 | -1.29 ± 0.15
98 | GAUAAGCAAUAUUACGGCCA | -1.15 ± 0.18 | 0.818 ± 0.17
